This is an account of results in patent US20110229922.

Series [1] addresses dabsyl-…-LucY (TMEM27 FRET peptide).
The subject of series [2] is MR121 peptide C TLEFLKI W.
Series [3] deals with dabsyl-QTLEFLKIPS-LucY (TMEM27 FRET peptide).
Series [4] has as its system dabsyl-NSLEFLGIQP-lucifer yellow (ACE2 FRET peptide).
In series [5] the test system is T1, MR121 peptide C QELEFLKI W.
T1 sequence: QELEFLKI

Series [6] concerns MR121 peptide C QTLEFLK W.
Series [7] relates to T2, TMEM 27 A FRET peptide RINNAFFLND
T2 sequence: RINNAFFLND

The test system of series [8] is T3, APP SW FRET peptide SEVNLDAEFR
T3 sequence: SEVNLDAEFR

In series [9] the test system is T4, MR121 peptide C QTLEFLKIPS W.
T4 sequence: QTLEFLKIPS

Series [10] has as its system T5, MR121 peptide C QTLEFLKIP W.
T5 sequence: QTLEFLKIP

Series [11] has as its system T6, APP WT FRET peptide SEVKMDAEFR
T6 sequence: SEVKMDAEFR

Series [12] relates to T7, MR121 peptide C QTLEFLKI W.
T7 sequence: QTLEFLKI

Series [13] relates to T8, Amylin FRET peptide GSNTYGKRNA
T8 sequence: GSNTYGKRNA

B1: BACE1 (protein)
chain: TQHGIRLPLRSGLGGAPLGLRLPRETDEEPEEPGRRGSFVEMVDNLRGKSGQGYYVEMTVGSPPQTLNILVDTGSSNFAVGAAPHPFLHRYYQRQLSSTYRDLRKGVYVPYTQGKWEGELGTDLVSIPHGPNVTVRANIAAITESDKFFINGSNWEGILGLAYAEIARPDDSLEPFFDSLVKQTHVPNLFSLQLCGAGFPLNQSEVLASVGGSMIIGGIDHSLYTGSLWYTPIRREWYYEVIIVRVEINGQDLKMDCKEYNYDKSIVDSGTTNLRLPKKVFEAAVKSIKAASSTEKFPDGFWLGEQLVCWQAGTTPWNIFPVISLYLMGEVTNQSFRITILPQQYLRPVEDVATSQDDCYKFAISQSSTGTVMGAVIMEGFYVVFDRARKRIGFAVSACHVHDEFRTAAVEGPFVTLDMEDCGYNIPQTDESTLMTIAY
For B1, the “FRET peptide cleavage activity” value in series [1] was “BACE1 had insignificant activity against this peptide”.

B2: BACE2 enzyme ectodomain (enzyme)
chain: AAPELAPAPFTLPLRVAAATNRVVAPTPGPGTPAERHADGLALALEPALASPAGAANFLAMVDNLQGDSGRGYYLEMLIGTPPQKLQILVDTGSSNFAVAGTPHSYIDTYFDTERSSTYRSKGFDVTVKYTQGSWTGFVGEDLVTIPKGFNTSFLVNIATIFESENFFLPGIKWNGILGLAYATLAKPSSSLETFFDSLVTQANIPNVFSMQMCGAGLPVAGSGTNGGSLVLGGIEPSLYKGDIWYTPIKEEWYYQIEILKLEIGGQSLNLDCREYNADKAIVDSGTTLLRLPQKVFDAVVEAVARASLIPEFSDGFWTGSQLACWTNSETPWSYFPKISIYLRDENSSRSFRITILPQLYIQPMMGAGLNYECYRFGISPSTNALVIGATVMEGFYVIFDRAQKRVGFAASPCAEIAGAAVSEISGPFSTEDVASNCVPAQSLSE
modifications: N-terminal Met
With B2, the Relative activity came out at 24 in the series with MR121 peptide C LEFLKI W; 28 in [2]; 21 in the series with MR121 peptide C QTLEF W; 100 in series [5]; 62 in [6]; 91 in series [9]. The figures for the Relative activity (in the series with MR121 peptide C QTLEFL W; in series [10]; in series [12]) were 32, 75 and 96, respectively. Moreover, the “FRET peptide cleavage activity” value in series [3] is reported as “BACE2 had a high activity against this sequence”. In addition, the “FRET peptide cleavage efficiency” value was “cleaved by BACE2 with an efficiency greater than that of the TMEM27 substrate” in series [4]; “cleaved less efficiently” in [7]; “cleaved less efficiently” in series [8]; “cleaved less efficiently” in series [11]; “cleaved less efficiently” in [13].
